Reference: patent publication US20190106487A1 (Sanofi, published 2019)
Substitutions are numbered along the chain they refer to.

B1: P013.S.02.B.E04 (antibody, V domains shown)
VH: QSLEESGGDLVKPGASLTLTCTASGFSLSSGGMSWVRQAPGKGLGWIGYINTGSGSTYYASWVNGRFTISKTSSTTVSLQMTSLTAADTATYFCAGGLPSDLWGPGTLVTVSS
VL: DIVMTQTPSSVEAAVGGTVTIKCQASQSINSRLAWYQQKPGQPPKLLIYSASTLASGVSSRFKGSGSGTEFTLTISDLESADGATYYCLSHYLTSSSSYGDAFGGGTEVVVK
notes: rabbit monoclonal antibody; also called P013.A.00088.A02
B2: P013.S.02.B.G02 (antibody, V domains shown)
VH: B1 VH with S34T, G45E, S56R, V63A, N64K, T68I
VL: DIVMTQTPSSVEAAVGGTVTIKCQASQSINSRLAWYQQKPGQPPKLLIYDASTLASGVSSRFSGSGTEFTLTISDLESADGATYYCLSHYLTSSSSYGNAFGGGTEVVVK
notes: rabbit monoclonal antibody; also called P013.A.00014.C07
B3: P013.S.01.B.C03 (antibody, V domains shown)
VH: QSVEESGGRLVTPGTPLTLTCTVSGIDLSNYAMSWVRQAPGKGLEWIGSVISGGSTYYATWARGRFTISKSSTTVDLKMTSLTTEDTATYFCARGCPGYNGDKYTFDLWGPGTLVTVSS
VL: AFEMTQTPSSVSEPVGGTVTIKCQASQSIYNYLSWYQQKPGQRPKLLIYRASTLASGVPSRFKGSGSGTEFTLTISGVESADAATYYCQQGATSYDIENPFGGGTEVVVK
notes: rabbit monoclonal antibody; also called P013.A.00133.D11
B4: P013.S.02.B.H04 (antibody, V domains shown)
VH: QSVEESGGRLVKPDETLTLTCTVSGIDLSSYAMGWVRQAPGKGLEYIGIISSSGRTYYANWAKGRFTISKASSTTVDLKITSPTTEDTATYFCARLITVDYYIYDYFNLWGQGTLVTVSS
VL: AYDMTQTPASVEAAVGGTVTIKCQASQSISSYLSWYQQKPGQPPKLLIYGASTLASGVPSRFKGSGSGTEYTLTISGVESDDAATYYCQQGYSYNNVDNTFGGGTEVVVK
notes: rabbit monoclonal antibody; also called P013.A.00029.F11
B5: P013.S.01.B.F06 (antibody, V domains shown)
VH: QSVEESGGRLVTPGTPLTLTCTVSGIDLSSDAVGWVRQAPGKGLEYIGIIVSSGETFYASWARGRCTISKTSSTTVDLRITRLTTEDTATYFCARGGPGYSFDTEYAFDPWGPGTLVTVSS
VL: AFEMTQTPASVEVAVGGTVTINCQASQSIGSWLSWYQQKVGQRPKLLISRASTLASGVPSRFKGSGSGTEYTLTISGVQSDDAATFYCQQGATTYDVDNVFGGGTEVVVR
notes: rabbit monoclonal antibody; also called P013.A.00045.E09
B6: P013.S.01.B.A02 (antibody, V domains shown)
VH: QSVEESGGRLVTPGTPLTLTCTVSGIDLSSYAMGWVRQAPGKGLEYIGVITSSATTYYASWAKGRFTISKTSSTTVDLRVTSLTTEDTATYFCARGGPGYSTNTHYAFDPWGPGTLVTVSS
VL: AFEMTQTPSSVSEPVGGTVTIKCQASQSIYIYLSWYQQKPGQRPKLLIYDASKLASGVPSRFSGSGSGTEFTLTISGVQSDDAATYYCQQGATTYNVDNVFGGGTEVVVK
notes: rabbit monoclonal antibody; also called P013.A.00003.H11

Molecular target: T1, human IL-1RAcP on 293T/17-FR cells (human, UniProt Q9NPH3 21-570)
T1 sequence (looked up): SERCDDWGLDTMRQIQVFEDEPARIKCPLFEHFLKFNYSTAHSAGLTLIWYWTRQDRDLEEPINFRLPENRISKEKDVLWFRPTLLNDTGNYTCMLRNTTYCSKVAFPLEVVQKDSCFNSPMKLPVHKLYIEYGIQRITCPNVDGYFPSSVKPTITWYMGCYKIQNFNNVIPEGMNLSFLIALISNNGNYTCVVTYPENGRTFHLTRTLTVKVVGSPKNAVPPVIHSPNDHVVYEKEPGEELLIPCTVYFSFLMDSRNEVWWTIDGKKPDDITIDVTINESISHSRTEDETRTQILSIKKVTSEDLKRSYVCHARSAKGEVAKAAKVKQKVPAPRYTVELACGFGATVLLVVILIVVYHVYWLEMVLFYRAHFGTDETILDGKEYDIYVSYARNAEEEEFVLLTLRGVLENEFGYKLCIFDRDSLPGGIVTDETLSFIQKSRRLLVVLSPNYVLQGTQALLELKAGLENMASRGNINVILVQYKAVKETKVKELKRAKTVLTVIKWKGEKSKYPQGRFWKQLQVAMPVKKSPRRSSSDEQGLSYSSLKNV
Test: cell-based or functional assay

Question: B1 was tested. Which “functional reporter gene assay (% inhibition), 0.04 µg/mL mAb” value did it give?
Answer: Its value is 11%.

Question: And the “functional reporter gene assay (% inhibition), 0.2 µg/mL mAb” value?
Answer: The value was 9%.

Question: And the “functional reporter gene assay (% inhibition), 1 µg/mL mAb” value?
Answer: The value was 8%.

Question: What about the “functional reporter gene assay (% inhibition), 5 µg/mL mAb” value of the same binder?
Answer: Its value is -6%.

Question: What about the “primary supernatant functional assay (% inh.), NF-kB luciferase reporter” value of the same binder?
Answer: The value was -37%.

Question: Which results are given for B2?
Answer: functional reporter gene assay (% inhibition), 0.04 µg/mL mAb: -2%; functional reporter gene assay (% inhibition), 0.2 µg/mL mAb: 0%; functional reporter gene assay (% inhibition), 1 µg/mL mAb: 5%; functional reporter gene assay (% inhibition), 5 µg/mL mAb: 0%; primary supernatant functional assay (% inh.), NF-kB luciferase reporter: -39%

Question: For B3, which “functional reporter gene assay (% inhibition), 0.04 µg/mL mAb” value is on record?
Answer: The value was 54%.

Question: What about the “functional reporter gene assay (% inhibition), 0.2 µg/mL mAb” value of the same binder?
Answer: The value was 77%.

Question: And the “functional reporter gene assay (% inhibition), 1 µg/mL mAb” value?
Answer: The value was 84%.

Question: What about the “functional reporter gene assay (% inhibition), 5 µg/mL mAb” value of the same binder?
Answer: Its value is 90%.

Question: What about the “primary supernatant functional assay (% inh.), NF-kB luciferase reporter” value of the same binder?
Answer: The value was 83%.

Question: B4 was tested. Which “functional reporter gene assay (% inhibition), 0.04 µg/mL mAb” value did it give?
Answer: The value was 7%.

Question: And the “functional reporter gene assay (% inhibition), 0.2 µg/mL mAb” value?
Answer: The value was -6%.

Question: And the “functional reporter gene assay (% inhibition), 1 µg/mL mAb” value?
Answer: The value was 15%.

Question: And the “functional reporter gene assay (% inhibition), 5 µg/mL mAb” value?
Answer: The value was 4%.

Question: And the “primary supernatant functional assay (% inh.), NF-kB luciferase reporter” value?
Answer: Its value is 52%.

Question: What does the source list for B5?
Answer: functional reporter gene assay (% inhibition), 0.04 µg/mL mAb: 41%; functional reporter gene assay (% inhibition), 0.2 µg/mL mAb: 52%; functional reporter gene assay (% inhibition), 1 µg/mL mAb: 68%; functional reporter gene assay (% inhibition), 5 µg/mL mAb: 70%; primary supernatant functional assay (% inh.), NF-kB luciferase reporter: 75%

Question: Which “functional reporter gene assay (% inhibition), 0.04 µg/mL mAb” value does the source give for B6 here?
Answer: Its value is 46%.

Question: And the “functional reporter gene assay (% inhibition), 0.2 µg/mL mAb” value?
Answer: Its value is 94%.

Question: What about the “functional reporter gene assay (% inhibition), 1 µg/mL mAb” value of the same binder?
Answer: The value was 95%.

Question: And the “functional reporter gene assay (% inhibition), 5 µg/mL mAb” value?
Answer: Its value is 98%.

Question: And the “primary supernatant functional assay (% inh.), NF-kB luciferase reporter” value?
Answer: The value was 92%.

Molecular target: T2, mIL1RAcP-Fc (murine, UniProt Q61730 21-359)
T2 construct: also called P013_04; P013-04
T2 sequence (looked up): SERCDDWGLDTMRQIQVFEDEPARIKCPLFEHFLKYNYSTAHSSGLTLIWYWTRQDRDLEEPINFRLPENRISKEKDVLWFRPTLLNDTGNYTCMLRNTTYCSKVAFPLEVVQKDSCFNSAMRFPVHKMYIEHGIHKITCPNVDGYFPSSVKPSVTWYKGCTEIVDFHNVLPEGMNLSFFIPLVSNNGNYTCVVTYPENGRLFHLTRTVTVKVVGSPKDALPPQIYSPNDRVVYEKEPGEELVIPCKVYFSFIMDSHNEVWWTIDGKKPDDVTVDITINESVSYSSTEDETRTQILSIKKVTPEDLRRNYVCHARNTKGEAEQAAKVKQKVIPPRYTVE
Test: ELISA, primary supernatant, coated mu-IL-1RAcP-Fc

Question: For B1, which “mu-IL1RaP ELISA (OD)” value is on record?
Answer: Its value is 3.5 OD.

Question: For B2, which “mu-IL1RaP ELISA (OD)” value is on record?
Answer: The value was 3.4 OD.

Question: Which “mu-IL1RaP ELISA (OD)” value does the source give for B3 here?
Answer: The value was 2.3 OD.

Question: How did the “mu-IL1RaP ELISA (OD)” value turn out when B4 was run?
Answer: The value was 1.7 OD.

Question: Which “mu-IL1RaP ELISA (OD)” value does the source give for B5 here?
Answer: The value was 3.4 OD.

Question: Which “mu-IL1RaP ELISA (OD)” value does the source give for B6 here?
Answer: The value was 1.2 OD.

Molecular target: T3, rhIL-1RAcP/Fc Chimera (human, UniProt Q9NPH3 21-359)
T3 construct: also called P013_03; P013-03
T3 sequence (looked up): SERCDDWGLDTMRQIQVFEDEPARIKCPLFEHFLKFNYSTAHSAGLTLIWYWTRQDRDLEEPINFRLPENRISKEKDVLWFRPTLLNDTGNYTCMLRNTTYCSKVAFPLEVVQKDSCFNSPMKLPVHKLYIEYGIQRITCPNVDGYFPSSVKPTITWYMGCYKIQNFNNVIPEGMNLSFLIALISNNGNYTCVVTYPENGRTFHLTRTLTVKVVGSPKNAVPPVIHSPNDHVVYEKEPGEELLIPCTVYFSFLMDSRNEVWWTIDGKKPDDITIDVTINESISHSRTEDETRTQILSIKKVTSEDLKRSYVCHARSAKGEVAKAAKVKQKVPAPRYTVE
Test: ELISA, primary supernatant, coated hu-IL-1RAcP-Fc
In short: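 Plates coated with 0.5 μg/mL Fc-tagged human IL-1RAcP; rabbit B-cell supernatant antibodies detected by peroxidase anti-rabbit IgG Fab2 and TMB, absorbance 450/620 nm. Parallel IL12Rβ1-Fc coating served as counterscreen to exclude tag binders.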

Question: How did the “hu-IL1RaP ELISA (OD)” value turn out when B1 was run?
Answer: The value was 3.6 OD.

Question: With B2 as the binder, how does the “hu-IL1RaP ELISA (OD)” value read?
Answer: Its value is 3.6 OD.

Question: B3 was tested. Which “hu-IL1RaP ELISA (OD)” value did it give?
Answer: The value was 3.2 OD.

Question: For B4, which “hu-IL1RaP ELISA (OD)” value is on record?
Answer: The value was 3.2 OD.

Question: How did the “hu-IL1RaP ELISA (OD)” value turn out when B5 was run?
Answer: Its value is 2.8 OD.

Question: For B6, which “hu-IL1RaP ELISA (OD)” value is on record?
Answer: Its value is 3.5 OD.

Molecular target: T3, rhIL-1RAcP/Fc Chimera
Test: ELISA, recombinant purified mAb

Question: With B2 as the binder, how does the EC50 read?
Answer: The EC50 was 0.493 µg/mL.

Question: For B3, which EC50 is on record?
Answer: The EC50 was 0.032 µg/mL.

Question: With B5 as the binder, how does the EC50 read?
Answer: Its EC50 is 0.039 µg/mL.

Question: With B6 as the binder, how does the EC50 read?
Answer: Its EC50 is 0.042 µg/mL.

Molecular target: T2, mIL1RAcP-Fc
Test: ELISA, recombinant purified mAb

Question: For B1, which EC50 is on record?
Answer: The EC50 was 0.385 µg/mL.

Question: Which EC50 does the source give for B2 here?
Answer: Its EC50 is 0.082 µg/mL.

Question: Which EC50 does the source give for B3 here?
Answer: Its EC50 is 0.332 µg/mL.

Question: Which EC50 does the source give for B4 here?
Answer: The EC50 was 0.644 µg/mL.

Question: With B5 as the binder, how does the EC50 read?
Answer: Its EC50 is 0.028 µg/mL.

Question: With B6 as the binder, how does the EC50 read?
Answer: Its EC50 is 0.025 µg/mL.
